Positions count from the first letter of the chain named. Where two headings read alike, the source gives them in different places. One block for each binder: values may come before it.
Key:
Experiment in all cases: SPR
[1] = target: T1, mIL10RaFc (Sino 51298-M02H) (mouse, UniProt Q61727)
T1 chain: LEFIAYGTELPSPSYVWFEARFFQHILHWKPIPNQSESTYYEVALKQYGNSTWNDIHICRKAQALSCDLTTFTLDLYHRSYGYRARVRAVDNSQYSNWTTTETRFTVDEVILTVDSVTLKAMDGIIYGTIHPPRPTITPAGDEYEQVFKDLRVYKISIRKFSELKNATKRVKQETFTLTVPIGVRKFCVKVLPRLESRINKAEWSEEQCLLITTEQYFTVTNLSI

[2] = target: T1, mIL10RaFc (Sino 51298-M02H)
hIL10RaFc (R&D 9044-RI) = target: T2, hIL10RaFc (R&D 9044-RI) (human, UniProt Q13651)
T2 chain: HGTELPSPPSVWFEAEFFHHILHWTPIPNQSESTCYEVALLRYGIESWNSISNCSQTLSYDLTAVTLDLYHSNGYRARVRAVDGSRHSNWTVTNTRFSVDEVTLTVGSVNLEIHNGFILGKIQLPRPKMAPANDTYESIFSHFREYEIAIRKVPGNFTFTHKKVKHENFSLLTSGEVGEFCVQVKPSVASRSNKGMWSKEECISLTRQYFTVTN

Kd (hIL10RaFc (R&D 9044-RI)): 0.38 nM
B3: h_DR1060_AA (hIL10 WT inverted monomer) (designed binder)
chain: KSKAVEQVKNAFNKLQEKGIYKAMSEFDIFINYIEAYMTMKIRNSPGQGTQSENSCTHFPGNLPNMLRDLRDAFSRVKTFFQMKDQLDNLLLKESLLEDFKGYLGCQALSEMIQFYLEEVMPQAENQDPDIKAHVNSLGENLKTLRLRLRRCHRFLPCENGGSHHHHHHHH

Kd [2]: 3.37 nM
B4: DR2820 (designed binder)
chain: GKCKAVEQVKSDFNKLQDQGVYKAMNEFDIFINAIEAYMMIKMKSQYSREDNNCTHFPVGQSHMLLELRTAFSQVKTFFQTKDQLDNILLTDSLMQCFKGYLGCQALSEMIQFYLVEVMPQAEKHGPEIKEHLNSLGEKLKTLRMRLRRCHRFLPCEN

Kd [2]: 2.34 nM
B5: DR2818 (designed binder)
chain: B4 chain with C3S, A5C, L94C, C97D

Kd [2]: 2.71 nM
B6: DR2819 (designed binder)
chain: B4 chain with C3S, A5C

Kd [2]: 2.29 nM
B9: DR2802 (designed binder)
chain: GKSKAVEQVKSIFNKLQDQGVYKAMNEFDIFINAIEAYMMIKMKSSREDNNCTHFMVAMSHMLLELRTAFSQVKTFFQTKDQLDNILLTDSLMQDFKGYLGCQALSEMIQFYLVEVLPQAEKHGPEIKEHLNSLGEKLKTLRMRLRRCHRFLPCEN

Kd [2]: 1.61 nM
B13: DR2816 (designed binder)
chain: B9 chain with I12D, F55A, M56P, A58G, M59Q, K137I

Kd [2]: 5.2 nM
B15: DR2823 (designed binder)
chain: B9 chain with I12D, M56P, A58G, M59Q, L117M

Kd [2]: 1.35 nM
B17: DR2808 (designed binder)
chain: B9 chain with F55A, M56P, A58G, M59Q, K137I

Kd (hIL10RaFc (R&D 9044-RI)): 0.06 nM
B21: hIL10 WT (protein)
chain: SPGQGTQSENSCTHFPGNLPNMLRDLRDAFSRVKTFFQMKDQLDNLLLKESLLEDFKGYLGCQALSEMIQFYLEEVMPQAENQDPDIKAHVNSLGENLKTLRLRLRRCHRFLPCENKSKAVEQVKNAFNKLQEKGIYKAMSEFDIFINYIEAYMTMKIRN
modifications: wild-type human IL10, homodimer; exact construct/tag not stated

More lines, now with the values behind:

B1: mIL10 WT (protein)
chain: SRGQYSREDNNCTHFPVGQSHMLLELRTAFSQVKTFFQTKDQLDNILLTDSLMQDFKGYLGCQALSEMIQFYLVEVMPQAEKHGPEIKEHLNSLGEKLKTLRMRLRRCHRFLPCENKSKAVEQVKSDFNKLQDQGVYKAMNEFDIFINCIEAYMMIKMKS
modifications: wild-type mouse IL10, homodimer; exact construct/tag not stated
Kd [1]: 0.81 nM

B2: DR2822 (designed binder)
chain: GKSKAVEQVKSDFNKLQDQGVYKAMNEFDIFINAIEAYMMIKMKSREDNNCTHFPVGQSHMLLELRTAFSQVKTFFQTKDQLDNILLTDSLMQDFKGYLGCQALSEMIQFYLVEVMPQAEKHGPEIKEHLNSLGEKLKTLRMRLRRCHRFLPCEN
Kd [2]: 6.42 nM

B7: DR2821 (designed binder)
chain: B4 chain with C3S, V6C, C97D, E109C
Kd [2]: 4.49 nM

B8: DR2806 (designed binder)
chain: B9 chain with M56N, A58G, M59L, K137I
Kd [2]: 2.7 nM

B10: DR2817 (designed binder)
chain: B9 chain with I12D, F55A, M56P, A58G, M59Q
Kd [2]: 1.65 nM

B11: DR2807 (designed binder)
chain: B9 chain with M56P, A58G, M59Q, L117M
Kd [2]: 144 nM

B12: DR2813 (designed binder)
chain: B9 chain with I12D, M56W, F70A, N132I, K137I
Kd [2]: 39.9 nM

B14: DR2815 (designed binder)
chain: B9 chain with I12D, M56N, A58V
Kd [2]: 1 nM

B16: DR2804 (designed binder)
chain: B9 chain with F55A, M56P, A58G, N132I, K137I
Kd [2]: 1.59 nM

B18: DR2805 (designed binder)
chain: B9 chain with F31V, F55A, M56P, A58M, M59F, K137I
Kd [2]: 30.9 nM

B19: DR2809 (designed binder)
chain: B9 chain with F55A, M56P, A58G, M59Q
Kd [2]: 17.3 nM

B20: DR2803 (designed binder)
chain: B9 chain with F55A, M56P, M59F, S60W, K137I
Kd [2]: 1.7 nM

B22: WC161_AA (mIL10 WT inverted monomer) (designed binder)
chain: NKSKAVEQVKSDFNKLQDQGVYKAMNEFDIFINAIEAYMMIKMKSSRGQYSREDNNCTHFPVGQSHMLLELRTAFSQVKTFFQTKDQLDNILLTDSLMQDFKGYLGCQALSEMIQFYLVEVMPQAEKHGPEIKEHLNSLGEKLKTLRMRLRRCHRFLPCENGGSHHHHHHHH
Kd [2]: 5.27 nM
Kd [1]: 6.54 nM

Reference: patent US20260365709 (published 2026)
